{
  "source": "paper PMC7458460",
  "biological_target": "CN391 (CNA_(1–391)/CNB_(1–170)) (UniProt Q08209)",
  "sequence (Q08209 1-391, chain 1 of 2)": "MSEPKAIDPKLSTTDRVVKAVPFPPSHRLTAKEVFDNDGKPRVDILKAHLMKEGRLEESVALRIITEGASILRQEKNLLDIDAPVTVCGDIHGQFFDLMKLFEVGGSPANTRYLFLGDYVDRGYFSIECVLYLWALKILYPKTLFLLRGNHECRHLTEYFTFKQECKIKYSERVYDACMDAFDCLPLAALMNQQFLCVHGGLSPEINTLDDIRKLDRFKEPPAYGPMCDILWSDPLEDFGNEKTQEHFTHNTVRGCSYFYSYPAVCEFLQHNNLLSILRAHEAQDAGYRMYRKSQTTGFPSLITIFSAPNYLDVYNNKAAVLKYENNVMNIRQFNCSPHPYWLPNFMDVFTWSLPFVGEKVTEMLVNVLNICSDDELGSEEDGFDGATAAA",
  "sequence (P63098 whole entry, chain 2 of 2, further chain, the tested form may be a part)": "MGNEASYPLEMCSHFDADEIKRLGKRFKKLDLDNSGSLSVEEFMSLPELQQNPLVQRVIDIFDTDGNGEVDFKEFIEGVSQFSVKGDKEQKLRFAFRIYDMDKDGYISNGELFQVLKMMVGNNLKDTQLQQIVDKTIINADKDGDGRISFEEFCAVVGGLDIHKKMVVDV",
  "assay": "ITC",
  "data": [
    {"substance": "RCAN1_(core) WT (residues 128 to 164) (from UniProt P53805-2 128-164) (domain or fragment)", "values": [
      {"measurement": "Kd", "value": 161, "unit": "nM"},
      {"measurement": "dH", "value": -18.8, "unit": "kcal/mol"}
    ]}
  ]
}
